# From publication PMC11574045, “A cofactor-induced repressive type of transcription factor condensation can be induced by synthetic peptides to suppress tumorigenesis” (The EMBO Journal, 2024)
# B1: CRY1 (protein, UniProt Q16526 1-586, looked up)
# Cryptochrome-1: MGVNAVHWFRKGLRLHDNPALKECIQGADTIRCVYILDPWFAGSSNVGINRWRFLLQCLEDLDANLRKLNSRLFVIRGQPADVFPRLFKEWNITKLSIEYDSEPFGKERDAAIKKLATEAGVEVIVRISHTLYDLDKIIELNGGQPPLTYKRFQTLISKMEPLEIPVETITSEVIEKCTTPLSDDHDEKYGVPSLEELGFDTDGLSSAVWPGGETEALTRLERHLERKAWVANFERPRMNANSLLASPTGLSPYLRFGCLSCRLFYFKLTDLYKKVKKNSSPPLSLYGQLLWREFFYTAATNNPRFDKMEGNPICVQIPWDKNPEALAKWAEGRTGFPWIDAIMTQLRQEGWIHHLARHAVACFLTRGDLWISWEEGMKVFEELLLDADWSINAGSWMWLSCSSFFQQFFHCYCPVGFGRRTDPNGDYIRRYLPVLRGFPAKYIYDPWNAPEGIQKVAKCLIGVNYPKPMVNHAEASRLNIERMKQIYQQLSRYRGLGLLASVPSNPNGNGGFMGYSAENIPGCSSSGSCSQGSGILHYAHGDSQQTHLLKQGRSSMGTGLSGGKRPSQEEDTQSIGPKVQRQSTN
# B2: CREM (protein, UniProt Q03060 1-345, looked up)
# cAMP-responsive element …: MTMETVESQHDGSITASLTESKSAHVQTQTGQNSIPALAQVSVAGSGTRRGSPAVTLVQLPSGQTIHVQGVIQTPQPWVIQSSEIHTVQVAAIAETDESAESEGVIDSHKRREILSRRPSYRKILNELSSDVPGVPKIEEERSEEEGTPPSIATMAVPTSIYQTSTGQYIAIAQGGTIQISNPGSDGVQGLQALTMTNSGAPPPGATIVQYAAQSADGTQQFFVPGSQVVVQDEETELAPSHMAAATGDMPTYQIRAPTAALPQGVVMAASPGSLHSPQQLAEEATRKRELRLMKNREAAKECRRRKKEYVKCLESRVAVLEVQNKKLIEELETLKDICSPKTDY
# B3: CRSP6 (protein, UniProt Q9NVC6 1-651, looked up)
# Mediator of RNA polymerase II …: MSGVRAVRISIESACEKQVHEVGLDGTETYLPPLSMSQNLARLAQRIDFSQGSGSEEEEAAGTEGDAQEWPGAGSSADQDDEEGVVKFQPSLWPWDSVRNNLRSALTEMCVLYDVLSIVRDKKFMTLDPVSQDALPPKQNPQTLQLISKKKSLAGAAQILLKGAERLTKSVTENQENKLQRDFNSELLRLRQHWKLRKVGDKILGDLSYRSAGSLFPHHGTFEVIKNTDLDLDKKIPEDYCPLDVQIPSDLEGSAYIKVSIQKQAPDIGDLGTVNLFKRPLPKSKPGSPHWQTKLEAAQNVLLCKEIFAQLSREAVQIKSQVPHIVVKNQIISQPFPSLQLSISLCHSSNDKKSQKFATEKQCPEDHLYVLEHNLHLLIREFHKQTLSSIMMPHPASAPFGHKRMRLSGPQAFDKNEINSLQSSEGLLEKIIKQAKHIFLRSRAAATIDSLASRIEDPQIQAHWSNINDVYESSVKVLITSQGYEQICKSIQLQLNIGVEQIRVVHRDGRVITLSYQEQELQDFLLSQMSQHQVHAVQQLAKVMGWQVLSFSNHVGLGPIESIGNASAITVASPSGDYAISVRNGPESGSKIMVQFPRNQCKDLPKSDVLQDNKWSHLRGPFKEVQWNKMEGRNFVYKMELLMSALSPCLL
# B4: CRSP9 (protein, UniProt O43513 1-233, looked up)
# Mediator of RNA polymerase II …: MGEPQQVSALPPPPMQYIKEYTDENIQEGLAPKPPPPIKDSYMMFGNQFQCDDLIIRPLESQGIERLHPMQFDHKKELRKLNMSILINFLDLLDILIRSPGSIKREEKLEDLKLLFVHVHHLINEYRPHQARETLRVMMEVQKRQRLETAERFQKHLERVIEMIQNCLASLPDDLPHSEAGMRVKTEPMDADDSNNCTGQNEHQRENSGHRRDQIIEKDAALCVLIDEMNERP
# B5: RFXANK (protein)
# chain: MELTQPAEDLIQTQQTPASELGDPEDPGEEAADGSDTVVLSLFPCTPEPVNPEPDASVSSPQAGSSLKHSTTLTNRQRGNEVSALPATLDSLSIHQLAAQGELDQLKEHLRKGDNLVNKPDERGFTPLIWASAFGEIETVRFLLEWGADPHILAKERESALSLASTGGYTDIVGLLLERDVDINIYDWNGGTPLLYAVRGNHVKCVEALLARGADLTTEADSGYTPMDLAVALGYRKVQQVIENHILKLFQSNLVPADPE
# B6: TEAD4 (protein, UniProt Q15561 1-434, looked up)
# Transcriptional enhancer …: MEGTAGTITSNEWSSPTSPEGSTASGGSQALDKPIDNDAEGVWSPDIEQSFQEALAIYPPCGRRKIILSDEGKMYGRNELIARYIKLRTGKTRTRKQVSSHIQVLARRKAREIQAKLKDQAAKDKALQSMAAMSSAQIISATAFHSSMALARGPGRPAVSGFWQGALPGQAGTSHDVKPFSQQTYAVQPPLPLPGFESPAGPAPSPSAPPAPPWQGRSVASSKLWMLEFSAFLEQQQDPDTYNKHLFVHIGQSSPSYSDPYLEAVDIRQIYDKFPEKKGGLKDLFERGPSNAFFLVKFWADLNTNIEDEGSSFYGVSSQYESPENMIITCSTKVCSFGKQVVEKVETEYARYENGHYSYRIHRSPLCEYMINFIHKLKHLPEKYMMNSVLENFTILQVVTNRDTQETLLCIAYVFEVSASEHGAQHHIYRLVKE
# Key:
# [1] = system: HEK293FT cells transfected with TF library; assay: Screening of TF condensates based on fluorescent puncta; type: cell-based; conditions: Figure 1B numerical data; TF library screen, one value per transcriptional factor
# In short: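 Condensate formation is scored as Alexa 488-labelled puncta after Flag- or GAL4-tag immunostaining of fixed HEK293FT cells expressing individual TFs, with a 12 h glucose-free or glucose-containing culture preceding fixation.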
# GFP-TEAD4 condensates = assay: siRNA screening based on TEAD4 condensate; type: cell-based; conditions: Figure 2B source data; siRNA against the named gene; Z score based analysis
# Procedure: siRNA reagents were obtained from the Dharmacon Human ON-TARGETplus siRNA Smartpool Library (Thermo) as described previously (Tang et al, [2020]). […] Lipofectamine RNAiMAX reagent (Thermo) at a volume of 0.05 μl per well was then added to the siRNA-loaded plates. Subsequently, cells expressing GFP-TEAD4 were seeded into the plate at 2000 cells per well. After subsequent transfection for 48 h, the cells were fixed with 4% PFA at room temperature for 30 min. DAPI was used to identify individual nuclei. The plates were kept at 4 °C in the dark before being analyzed using the Opera system. Twenty focus fields per well were scanned and analyzed. Scrambled siRNA was used as an internal reference on each plate.
# HGC-27 cells = assay: siRNA screening based on cell growth; design: species or system human; conditions: Figure 2B source data; siRNA against the named gene; Z score based analysis
# Procedure: For screening based on cell growth, HGC-27 cells (2000 per well) were seeded into a 96-well plate overnight. The individual siRNAs targeting 192 BioID-identified genes were then added into each well to a final concentration of 25 nM. After subsequent incubation for 48 h, the cells were analyzed using an ATP-based CellCounting-Lite^TM 2.0 reagent (Vazyme, Nanjing, China) according to the manufacturer’s instructions. The intracellular ATP contents were measured using an EnSight™ Multimode Microplate Reader (Perkin Elmer).
# [2] = system: GFP-TEAD4 condensates in HEK293FT cells; assay: GFP-TEAD4 condensate imaging, condensed fraction in cells; type: cell-based; conditions: Figure 2D source data, GFP-TEAD4 condensates with co-expressed cofactor, with or without 1,6-Hex, single measurement
Molecule,Z score of condensed fraction [1],Z score of condensed fraction (GFP-TEAD4 condensates),Z score of cell growth (HGC-27 cells),other results
B1,-0.5227,–,–,–
B2,-0.7399,–,–,–
B3,-0.7101,–,–,–
B4,-0.379,–,–,–
B5,–,-3.941,3.094,Condensed fraction ([2]; replicate 1 of 9): 37.5428%; Condensed fraction ([2]; replicate 2 of 9): 33.3337%; Condensed fraction ([2]; replicate 3 of 9): 44.4467%; Condensed fraction ([2]; replicate 4 of 9): 47.0652%; Condensed fraction ([2]; replicate 5 of 9): 51.3041%; Condensed fraction ([2]; replicate 6 of 9): 37.5405%; Condensed fraction ([2]; replicate 7 of 9): 26.519%; Condensed fraction ([2]; replicate 8 of 9): 36.7045%; Condensed fraction ([2]; replicate 9 of 9): 37.5001%
B6,3.255,1.0247,0.6975,–
